From US20110300138A1 (published 2011) come the findings set out here.

For assay [1], the target named is TSH receptor (full length human TSHR) coated on tubes (human) (UniProt P16473). The assay is described as follows: 125I-TSH binding to TSHR coated tubes, in assay buffer.
Assay [2] has the same target. The assay is described as follows: 125I-TSH binding to TSHR coated tubes, in HBD pool.
Assay [3] has the same target. The assay is described as follows: 125I-TSH binding inhibition, TSHR coated tubes; 0.25 units/L in assay buffer.
Assay [4] has the same target. The assay is described as follows: 125I-TSH binding inhibition, TSHR coated tubes; 40 units/L in assay buffer.
Assay [5] has the same target. The assay is described as follows: 125I-TSH binding inhibition, TSHR coated tubes; 1 unit/L in serum.
Assay [6] shares this target. The assay is described as follows: 125I-TSH binding inhibition, TSHR coated tubes; 40 units/L in serum.
The target is the same in assay [7]. The assay is described as follows: 125I-TSH binding inhibition, TSHR coated tubes; 2 units/L in assay buffer.
For assay [8] the target is unchanged. The assay is described as follows: 125I-TSH binding inhibition, TSHR coated tubes; 0.125 units/L in serum.
The target is the same in assay [9]. The assay is described as follows: 125I-TSH binding inhibition, TSHR coated tubes; 8 units/L in serum.
The target is the same in assay [10]. The assay is described as follows: 125I-TSH binding inhibition, TSHR coated tubes; 0.5 units/L in assay buffer.
For assay [11] the target is unchanged. The assay is described as follows: 125I-TSH binding inhibition, TSHR coated tubes; 2 units/L in serum.
Assay [12] has the same target. The assay is described as follows: 125I-TSH binding inhibition, TSHR coated tubes; 4 units/L in serum.
The target is the same in assay [13]. The assay is described as follows: 125I-TSH binding inhibition, TSHR coated tubes; 0.25 units/L in serum.
For assay [14] the target is unchanged. The assay is described as follows: 125I-TSH binding inhibition, TSHR coated tubes; 1 unit/L in assay buffer.
The target is the same in assay [15]. The assay is described as follows: 125I-TSH binding inhibition, TSHR coated tubes; 0.125 units/L in assay buffer.
Assay [16] has the same target. The assay is described as follows: 125I-TSH binding inhibition, TSHR coated tubes; 4 units/L in assay buffer.
Assay [17] shares this target. The assay is described as follows: 125I-TSH binding inhibition, TSHR coated tubes; 8 units/L in assay buffer.
Assay [18] shares this target. The assay is described as follows: 125I-TSH binding inhibition, TSHR coated tubes; 0.5 units/L in serum.
Assay [19] addresses TSHR260-alkaline phosphatase (human). The assay is described as follows: ELISA on 14C4 F(ab')2 captured preparation; TSHR260-AP kept 48 hours at room temperature. Background: ELISA stands for enzyme-linked immunosorbent assay.
The target in assay [20] is TSHR LRD C-CAP (human) (UniProt P16473). The assay is described as follows: ELISA on 14C4 F(ab')2 captured preparation; untreated TSHR LRD C-CAP.
In assay [21] the target is full length human TSHR, detergent-solubilised, coated on tubes or ELISA plate wells (human) (UniProt P16473). The assay is described as follows: ELISA on 14C4 F(ab')2 captured preparation; preparation kept 48 hours at room temperature.
Assay [22] deals with TSHR LRD C-CAP (human) (UniProt P16473). The assay is described as follows: ELISA on 14C4 F(ab')2 captured preparation; TSHR LRD C-CAP kept 48 hours at room temperature.
Assay [23] has as its target full length human TSHR, detergent-solubilised, coated on tubes or ELISA plate wells (human) (UniProt P16473). The assay is described as follows: ELISA: TSHR preparation captured on 14C4 F(ab')2 coated wells, M22 Fab-peroxidase binding; preparation stored at -80 C (untreated).
Assay [24] has as its target TSHR260-alkaline phosphatase (human). The assay is described as follows: ELISA on 14C4 F(ab')2 captured preparation; untreated TSHR260-AP.
In assay [25] the target is T1, TSHR260 (human, UniProt P16473 22-260).
T1 construct: Expressed in insect cells; coated on tubes or wells by way of a mouse TSHR MAb (14C4 F(ab')2 in the stability ELISA); also called TSHR fragment of amino acids 22-260
The assay is described as follows: ELISA on 14C4 F(ab')2 captured preparation; TSHR260 kept 24 hours at room temperature.

For assay [26], the target named is T1, TSHR260. The assay is described as follows: ELISA on 14C4 F(ab')2 captured preparation; TSHR260 kept 48 hours at room temperature.
In assay [27] the target is full length human TSHR, detergent-solubilised, coated on tubes or ELISA plate wells (human) (UniProt P16473). The assay is described as follows: ELISA on 14C4 F(ab')2 captured preparation; preparation kept 24 hours at room temperature.
Assay [28] has as its target TSHR LRD C-CAP (human) (UniProt P16473). The assay is described as follows: ELISA on 14C4 F(ab')2 captured preparation; TSHR LRD C-CAP kept 24 hours at room temperature.
In assay [29] the target is TSHR260-alkaline phosphatase (human). The assay is described as follows: ELISA on 14C4 F(ab')2 captured preparation; TSHR260-AP kept 24 hours at room temperature.
For assay [30], the target named is T1, TSHR260. The assay is described as follows: ELISA on 14C4 F(ab')2 captured preparation; untreated TSHR260.
Assay [31] has as its target TSH receptor (full length human TSHR) coated on tubes (human) (UniProt P16473). The assay is described as follows: 125I-TSH binding inhibition, TSHR coated tubes; 0.5 units/L, in assay buffer.
Assay [32] shares this target. The assay is described as follows: 125I-TSH binding inhibition, TSHR coated tubes; 0.125 units/L, in serum.
The target is the same in assay [33]. The assay is described as follows: 125I-TSH binding inhibition, TSHR coated tubes; 8.0 units/L, in serum.
Assay [34] shares this target. The assay is described as follows: 125I-TSH binding inhibition, TSHR coated tubes; 2.0 units/L, in serum.
Assay [35] shares this target. The assay is described as follows: 125I-TSH binding inhibition, TSHR coated tubes; 0.25 units/L, in serum.
The target is the same in assay [36]. The assay is described as follows: 125I-TSH binding inhibition, TSHR coated tubes; 8.0 units/L, in assay buffer.
For assay [37] the target is unchanged. The assay is described as follows: 125I-TSH binding inhibition, TSHR coated tubes; 4.0 units/L, in assay buffer.
For assay [38] the target is unchanged. The assay is described as follows: 125I-TSH binding inhibition, TSHR coated tubes; 0.125 units/L, in assay buffer.
Assay [39] shares this target. The assay is described as follows: 125I-TSH binding inhibition, TSHR coated tubes; 40.0 units/L, in assay buffer.
Assay [40] has the same target. The assay is described as follows: 125I-TSH binding inhibition, TSHR coated tubes; 1.0 units/L, in assay buffer.
Assay [41] has the same target. The assay is described as follows: 125I-TSH binding inhibition, TSHR coated tubes; 0.25 units/L, in assay buffer.
Assay [42] has the same target. The assay is described as follows: 125I-TSH binding inhibition, TSHR coated tubes; 2.0 units/L, in assay buffer.
Assay [43] has the same target. The assay is described as follows: 125I-TSH binding inhibition, TSHR coated tubes; 0.5 units/L, in serum.
For assay [44] the target is unchanged. The assay is described as follows: 125I-TSH binding inhibition, TSHR coated tubes; 4.0 units/L, in serum.
Assay [45] shares this target. The assay is described as follows: 125I-TSH binding inhibition, TSHR coated tubes; 1.0 units/L, in serum.
Assay [46] shares this target. The assay is described as follows: 125I-TSH binding inhibition, TSHR coated tubes; 40.0 units/L, in serum.
The target in assay [47] is T2, human TSH receptor, full length, detergent-solubilised, coated on tubes or ELISA plate wells (human, UniProt P16473 22-764).
T2 construct: Full length recombinant receptor expressed in CHO cells, solubilised and coated via a C-terminal antibody; also called wild type TSHR; full length TSHR
The assay is described as follows: TSHR binding affinity (summary table; Scatchard analysis, TSHR coated tubes).

For the molecule 125I-labelled TSH (ligand), the results for the % binding in assay [1] and in assay [2] were 12.6% and 12.9%, respectively.
As to “Thyroid Stimulating Autoantibody reference preparation NIBSC 90/672”, the Inhibition of binding (%) came out at 0.9% in assay [3]; 90.9% in [4]; 15.5% in [5]; 90% in [6]; 27.2% in [7]; 2.4% in assay [8]. For the same molecule, the Inhibition of binding (%) in assay [9] came out at 63.2%; in assay [10], 2.8%; in [11], 22.9%; in assay [12] it was 49.2%; in assay [13], 3.5%; in assay [14], 14.1%. Further, the Inhibition of binding (%) in assay [15] was 5.1%; in assay [16] it was 53.3%; in [17] it was 62.2%; in assay [18], 9.3%.
In the case of M22 Fab-peroxidase conjugate, the OD450 nm in assay [19] came to 1.98 OD450 nm; in the assay with TSHR LRD C-CAP (human) [20] it was 1.83 OD450 nm; in assay [21], 0.126 OD450 nm; in the assay with TSHR LRD C-CAP (human) [22] it was 1.16 OD450 nm; in [23], 1.75 OD450 nm; in [24], 2.4 OD450 nm. Besides, the OD450 nm is 1.84 OD450 nm with TSHR260 [25]; 1.68 OD450 nm with TSHR260 [26]; 0.268 OD450 nm in assay [27]; 1.16 OD450 nm with TSHR LRD C-CAP (human) [28]; 2.11 OD450 nm in [29]; 2.29 OD450 nm with TSHR260 [30].
For WHO reference preparation NIBSC 90/672, the Inhibition of binding (%) in [31] amounted to 3.1%; in [32] it was 0%; in [33], 65.3%; in assay [34], 18.2%; in assay [35], 0%; in [36], 62.7%. The Inhibition of binding (%) in [37] was determined as 49%; in assay [38] it was 0%; in assay [39], 91%; in assay [40] it was 14%; in [41], 0%; in assay [42], 26.2%. The Inhibition of binding (%) was 5.6% in assay [43], 34.8% in [44], 8.1% in assay [45] and 90.9% in assay [46].

B1: K1-70 IgG (human monoclonal TSHR autoantibody with blocking activity) (antibody, V domains shown)
VH: EVQLVQSGAEVKKPGQSLKISCKASGYSLTDNWIGWVRQKPGKGLEWMGIIYPGDSDTRYSPSFQGQVTISADKSINTAYLQWSSLKASDTAIYYCVGLDWNYNPLRYWGPGTLVTVSS
VL: QSVLTQPPSVSAAPGQKVTISCSGSSSDIGSNYVSWYQQFPGTAPKLLIYDNNKRPSAIPDRFSGSKSGTSATLGITGLQTGDEADYYCGTWDSRLGIAVFGGGTQLTVLG
notes: IgG1 lambda purified from hetero-hybridoma supernatant
The molecule B1 had a Ka in [47] of 3.9e+10 M⁻¹.
